System: MS2 coat protein
Assay: apparent KD of MS2 coat protein; higher = weaker reporter binding
Settings: Eterna round: R107
Procedure, shortened: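 Designed RNA switches were transcribed on-chip from Illumina sequencing clusters. They were then titrated with SNAP-549-labelled MS2 coat protein (twofold steps, 0.7 or 1.5 nM to 3 µM; 0.8–1.5 h to 10–20 min per step) in 100 mM Tris-HCl pH 7.5, 80 mM KCl, 4 mM MgCl2, without or with constant ligand. Apparent KD is the per-design median of normalised cluster binding-curve fits.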

[1] = input ligand: theophylline 20 uM
[2] = input ligand: theophylline 2 mM
[3] = input ligand: tryptophan 2.4 mM

| Sequence | apparent KD of MS2 coat protein (input ligand: arginine 13.2 mM) [nM] | apparent KD of MS2 coat protein [1] [nM] | apparent KD of MS2 coat protein [2] [nM] | apparent KD of MS2 coat protein (input ligand: none) [nM] | apparent KD of MS2 coat protein [3] [nM] |
| --- | --- | --- | --- | --- | --- |
| GUCCUCAUGACGGCCGCCACUACACAUGAGGAUCACCCAUGUAAUGAUCCCUUAAAUGAUAAUAGUAGGACCGGGUCACUGUAAG [Same State Typptophan B GF12] | 119 | 569 | 743 | – | – |
| GUCUCUGAGAGAAGGAGCGUGAAGACAUGAGGAUCACCCAUGUAGAGGCGCCGAAGGCGUUCGCAGGUAGGUCGCUCUCAGAGAC [#1 Same State - Arginine B Attempt #20 (HarryS)] | 15.2 | 23.8 | 17.5 | 15.5 | 18.4 |
| GUGCGGUUUGAUGAUACCAGAUGUGGUGGGAACAUGAGGAUCACCCAUGUUGUGAAACAGGUCCCUUGGCAGCAUGAGUGAGCUU [TheoB-ms2@32-1] | 97.3 | 255 | 290 | 103 | 55.5 |
| GUUGGAUUUUCGGCCGCCACUGAGAGAGUCAUGUGAACAUGAGGAUCACCCAUGUAAUAUAUAUACAGGACCGGGAGGGUUGUAA [4.L] | 35 | 26.3 | 18.6 | 14.6 | 13.5 |
| GUUUAAAGGUCGGCCGCCACUGUAGGAUGUGUUCUUUCACAUGAGGAUCACCCAUGUUGUUAUUAUAGGACCGGGAUUUUAGGAC [39MS split4] | 25.8 | 33.1 | 27.4 | – | – |
| UAAACACAUGAGGAUCACCCAUGUCAUGAUACCAGUCAACAUGAGGACCCUUGGCAGCAUAAAAUGGGUAACAUGAGGAUCACCC [AstrosEXyTheA#2] | 46.2 | 78.4 | – | – | 51.5 |
| UAAACAUGAGGAUCACCCAUGUUGGAUGAAGGAGCGACCAGAGGGUCAGGUAGGUCGCAUCACAUGAGGAUCACCCAUGUCAUUU [DOUBLE!!! :-D #12] | 59.1 | 114 | 147 | 108 | 97.7 |
| UAACAUGAGGAUCACCCAUGUAUAGUCGAUACCAGCUCAAGGAAGAGCCCUUGGCAGCGACACUGCCAAGCAUGGGUCAUGGCAG [(Ms2)-(Theo)-(T)'-(M)'-(T)''_Design5] | 20.7 | 31.9 | – | – | 19.5 |
| UAAUAAUCCAGGGUGUAGGUAAUAACAGAUACCAGCCAGAUAACUGGCCCUUGGCAGCUGAAAACCUGAGGAUCACCCAGGUAAA [TheoAS 23 #OpenEnded #MS2Late #AlternativeMS2] | 36.4 | 122 | 67.7 | 56.2 | 62.6 |
| UAAUGCAGGUCGGCCGCCACUACACACAUGAGGAUCACCCAUGUAGUUACUGGGUGAAGUGGCAGUAGGACCGGGACCUGCAUAC [Brourdmod04] | 165 | 578 | 833 | – | – |
| UAGACGGCCGGAAGGAGCGGUACAUGAGGAUCACCCAUGUAUCCCUGGGCAUCCGUAGUGUGCCAGGUAGGUCGCCGGUUGCGGG [XArg-B21] | 15.3 | 25.2 | 18.2 | 15.5 | 15.9 |
| UAUAUAGAAGGAUGUCAUAUAGAUGCAGAAGGAGCGUAGGAAACUACAGGUAGGUCGCUGAGGUACAUGAGGAUCACCCAUGUAG [SSArg A #17 Slice of Pi] | 32.6 | 54 | 45.5 | 33.1 | 26.7 |
| UAUAUAGUGAUGGAUACCAGCAGAGAAAACGUUUAUCCUAACAUGAGGAUCACCCAUGUAUGCCCUUGGCAGCUGUUGUUAUAUA [8.L] | 20.8 | 30.1 | – | – | 21.4 |
| UAUAUAUACUCGGCCGCCACUGAGAGAGUCAUGUAAACAUGAGGAUCACCCAUGUAAUAUAUAUACAGGACCGGGAGUAUAUGAA [4.B] | 11.8 | 17.7 | 15.5 | – | – |
| UAUAUAUAGGGAAGGAGCGGGAACAUGAGGAUCACCCAUGUACAUGAGGAUCACCCAUGUACCCAGGUAGGUCGCCCAUAUAUAU [Exclusion - Arginine B] | 90.7 | 227 | 276 | 250 | 241 |
| UAUAUAUAUAGGGAUACCAGCAGAGAAAACGUUUAUCCUAACAUGAGGAUCACCCAUGUAUGCCCUUGGCAGCUUUAUAUAUAUA [8.F] | 23.6 | 27.6 | – | – | 24 |
| UAUAUAUAUAUUGAUACCAGCAGAGAAAACGUAUAUCCUAACAUGAGGAUCACCCAUGUAUGCCCUUGGCAGCGAUAUAUAUAUA [8.B] | 21.2 | 31 | – | – | 24.9 |
| UAUCCACAUGAGGAUCACCCAUGUAGGGAAGGAGCGGUGAAUGCACCAGGUAGGUCGCCUUGCUGAGGACAGCCGGUGGAUUCGU [Exclusion - Arginine A (Freestyle 26)] | 16.7 | 19 | 23 | 12.2 | 16 |
| UAUCCACAUGAGGAUCACCCAUGUUAGGAAGGAGCGGUGAGUGCACCAGGUAGGUCGCCUAGCUGAGGACUGUCGGUGGAUUCGU [Exclusion - Arginine A (Freestyle 20)] | 39.7 | 67.3 | 57.1 | 88 | 47.7 |

From the supplement of paper PMC9170038
